Assay results as given in PMC7896056.

Columns and labels:
[1] = target: SIRT1 (183–510+GS+641–665) (human) (UniProt Q96EB6); assay: ITC; Ac-p53 peptide (500 μM) titrated into 10 μM SIRT1 (183–510+GS+641–665) in the presence of 0.2 mM KPMF-8; 25 °C; 20 mM HEPES pH 7.4, 150 mM NaCl, 0.5% ethanol; one-site model
[2] = target: SIRT1 (183–510+GS+641–665) (human) (UniProt Q96EB6); assay: ITC; Ac-p53 peptide (500 μM) titrated into 10 μM SIRT1 (183–510+GS+641–665), no activator; 25 °C; 20 mM HEPES pH 7.4, 150 mM NaCl, 0.5% ethanol; one-site model
[3] = target: SIRT1 (183–510+GS+641–665) (human) (UniProt Q96EB6); assay: ITC; Ac-p53 peptide (500 μM) titrated into 10 μM SIRT1 (183–510+GS+641–665) in the presence of 0.2 mM resveratrol; 25 °C; 20 mM HEPES pH 7.4, 150 mM NaCl, 0.5% ethanol; one-site model

UniProt Q96EB6, sequence (Q96EB6 other isoform, or with tags, fused parts or gaps): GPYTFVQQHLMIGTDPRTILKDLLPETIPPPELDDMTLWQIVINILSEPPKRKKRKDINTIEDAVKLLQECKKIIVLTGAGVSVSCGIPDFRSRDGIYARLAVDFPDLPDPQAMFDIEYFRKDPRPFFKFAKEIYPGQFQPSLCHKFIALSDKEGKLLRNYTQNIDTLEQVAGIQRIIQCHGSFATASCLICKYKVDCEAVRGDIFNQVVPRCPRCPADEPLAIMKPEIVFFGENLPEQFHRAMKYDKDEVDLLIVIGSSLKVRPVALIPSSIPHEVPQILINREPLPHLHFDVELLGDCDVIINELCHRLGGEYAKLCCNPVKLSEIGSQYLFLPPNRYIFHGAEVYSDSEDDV

Q: Which Kd [1] does the source give for native Ac-p53 peptide here?
A: The Kd was 6.67 µM.

Q: And the Kd [2]?
A: The Kd was 55 µM.

Q: And the Kd [3]?
A: Its Kd is 38.8 µM.
